test system: Escherichia coli TOP10; assay: shrunken log2 fold change of peptide-encoding DNA abundance (4.5 h post-induction vs induction); higher = less antimicrobial activity (less host growth inhibition); details: time post-induction: 4.5 h; library: site-saturation at positions 5, 18, 19, 20
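Also: peptides expressed intracellularly from a pBAD plasmid library in pooled LB shake-flask culture, induced with 0.3% L-arabinose, DNA abundance read by NGS, three biological replicates, DESeq2 with apeglm shrinkage.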

Sequence | shrunken log2 fold change
RRIRQRPPRLPRPRPRPQSLPRP | -0.0818
RRIRVRPPRLPRPRPRPHMTPRP | -0.277
RRIRPRPPRLPRPRPRPNNEPRP | -0.504
RRIRWRPPRLPRPRPRPCLTPRP | -0.00541
RRIRIRPPRLPRPRPRPPACPRP | 0.498
RRIRHRPPRLPRPRPRPGASPRP | -0.196
RRIRRRPPRLPRPRPRPLGYPRP | 0.26
RRIRFRPPRLPRPRPRPAEHPRP | 0.26
RRIRNRPPRLPRPRPRPCTSPRP | -0.0712
RRIRVRPPRLPRPRPRPQLKPRP | -0.177
RRIRNRPPRLPRPRPRPGYQPRP | -0.0454
RRIRYRPPRLPRPRPRPNYSPRP | -1.39
RRIRHRPPRLPRPRPRPWLKPRP | -0.185
RRIRTRPPRLPRPRPRPRPNPRP | 0.267
RRIRTRPPRLPRPRPRPEIQPRP | -0.00275
RRIRARPPRLPRPRPRPRIQPRP | 0.505
RRIRMRPPRLPRPRPRPIGAPRP | 0.739
RRIRARPPRLPRPRPRPREIPRP | 0.865
RRIRLRPPRLPRPRPRPVPEPRP | 0.161
RRIRCRPPRLPRPRPRPCAGPRP | 0.039
RRIRRRPPRLPRPRPRPRDVPRP | 0.328
RRIRVRPPRLPRPRPRPAAQPRP | 0.433
RRIRRRPPRLPRPRPRPHFCPRP | 0.00733
RRIRMRPPRLPRPRPRPAHYPRP | -0.248
RRIRVRPPRLPRPRPRPKPHPRP | 0.264

Sequence | shrunken log2 fold change
RRIRERPPRLPRPRPRPSMVPRP | -0.86
RRIRRRPPRLPRPRPRPMFPPRP | 0.118
RRIRKRPPRLPRPRPRPYSDPRP | 0.0075
RRIRLRPPRLPRPRPRPIHNPRP | -1.05
RRIRGRPPRLPRPRPRPPVHPRP | 0.644
RRIRIRPPRLPRPRPRPEYIPRP | -0.667
RRIRDRPPRLPRPRPRPNRGPRP | -0.0177
RRIRFRPPRLPRPRPRPDMWPRP | -1.03
RRIRTRPPRLPRPRPRPNIYPRP | 0.0647
RRIRDRPPRLPRPRPRPAPCPRP | 0.658
RRIRVRPPRLPRPRPRPCVMPRP | -0.0841
RRIRSRPPRLPRPRPRPPLFPRP | 0.257
RRIRMRPPRLPRPRPRPWVTPRP | -0.15
RRIRPRPPRLPRPRPRPFVTPRP | -0.102
RRIRYRPPRLPRPRPRPEVGPRP | 0.0159
RRIRRRPPRLPRPRPRPESIPRP | -0.195
RRIRGRPPRLPRPRPRPADCPRP | 0.349
RRIRHRPPRLPRPRPRPVDDPRP | -0.221
RRIRTRPPRLPRPRPRPIHYPRP | -0.356
RRIRPRPPRLPRPRPRPDKPPRP | -0.233
RRIRDRPPRLPRPRPRPLCIPRP | 0.162
RRIRMRPPRLPRPRPRPPTPPRP | 1.66
RRIRQRPPRLPRPRPRPANCPRP | 0.0322
RRIRGRPPRLPRPRPRPDISPRP | -0.0115
RRIRWRPPRLPRPRPRPRRCPRP | 0.224

Sequence | shrunken log2 fold change
RRIRRRPPRLPRPRPRPPIDPRP | 0.144
RRIRERPPRLPRPRPRPFVTPRP | -0.865
RRIRTRPPRLPRPRPRPVGMPRP | -0.388
RRIRNRPPRLPRPRPRPFFAPRP | 0.201
RRIRCRPPRLPRPRPRPVLWPRP | 0.136
RRIRIRPPRLPRPRPRPACLPRP | -0.228
RRIRKRPPRLPRPRPRPTGRPRP | 0.609
RRIRTRPPRLPRPRPRPQSWPRP | 0.234
RRIRWRPPRLPRPRPRPFDVPRP | -0.00233
RRIRHRPPRLPRPRPRPGYGPRP | -0.318
RRIRGRPPRLPRPRPRPRMEPRP | 0.483
RRIRARPPRLPRPRPRPIIEPRP | 0.00879
RRIRDRPPRLPRPRPRPHPFPRP | 0.0528
RRIRIRPPRLPRPRPRPACIPRP | -0.69
RRIRARPPRLPRPRPRPVRLPRP | 0.371
RRIRIRPPRLPRPRPRPTGEPRP | 0.00229
RRIRWRPPRLPRPRPRPVLLPRP | 0.0146
RRIRERPPRLPRPRPRPMIIPRP | -0.317
RRIRFRPPRLPRPRPRPECWPRP | 0.675
RRIRHRPPRLPRPRPRPKMDPRP | -0.014
RRIRSRPPRLPRPRPRPPICPRP | 0.635
RRIRYRPPRLPRPRPRPFPTPRP | -0.781
RRIRDRPPRLPRPRPRPQHAPRP | 0.044
RRIRLRPPRLPRPRPRPLTSPRP | -0.179
RRIRKRPPRLPRPRPRPVYAPRP | -0.0576

Sequence | shrunken log2 fold change
RRIRRRPPRLPRPRPRPLKVPRP | 0.0966
RRIRIRPPRLPRPRPRPCCWPRP | 0.0865
RRIRGRPPRLPRPRPRPFRNPRP | 0.0285
RRIRPRPPRLPRPRPRPCCCPRP | 0.368
RRIRHRPPRLPRPRPRPNCLPRP | -0.0125
RRIRMRPPRLPRPRPRPSEHPRP | 0.0665
RRIRFRPPRLPRPRPRPGCIPRP | -0.241
RRIRFRPPRLPRPRPRPLQAPRP | 0.285
RRIRYRPPRLPRPRPRPLTSPRP | -0.853
RRIRVRPPRLPRPRPRPYSQPRP | 0.0117
RRIRTRPPRLPRPRPRPLVFPRP | -0.214
RRIRCRPPRLPRPRPRPRDKPRP | 0.0174
RRIRMRPPRLPRPRPRPYHLPRP | 0.00229
RRIRMRPPRLPRPRPRPNKQPRP | 0.0442
RRIRRRPPRLPRPRPRPLHKPRP | -0.191
RRIRKRPPRLPRPRPRPYKWPRP | 0.000411
RRIRCRPPRLPRPRPRPGAFPRP | 0.138
RRIRMRPPRLPRPRPRPFKIPRP | -0.0716
RRIRGRPPRLPRPRPRPYMVPRP | -0.296
RRIRPRPPRLPRPRPRPHIVPRP | -0.481
RRIRKRPPRLPRPRPRPLENPRP | 0.228
RRIRERPPRLPRPRPRPIHQPRP | -1.22
RRIRMRPPRLPRPRPRPEAMPRP | 0.204
RRIRTRPPRLPRPRPRPLLLPRP | 0.758
RRIRGRPPRLPRPRPRPIESPRP | 0.108

Sequence | shrunken log2 fold change
RRIRARPPRLPRPRPRPRVQPRP | 0.359
RRIRIRPPRLPRPRPRPYTNPRP | -0.957
RRIRIRPPRLPRPRPRPSTYPRP | -1.63
RRIRKRPPRLPRPRPRPNQGPRP | 0.079
RRIRDRPPRLPRPRPRPARGPRP | 0.793
RRIRVRPPRLPRPRPRPGDKPRP | 0.00318
RRIRYRPPRLPRPRPRPFVYPRP | -1.51
RRIRRRPPRLPRPRPRPCGEPRP | 0.0238
RRIRVRPPRLPRPRPRPKHIPRP | -0.47
RRIRHRPPRLPRPRPRPVWDPRP | -0.0821
RRIRCRPPRLPRPRPRPNAEPRP | 0.118
RRIRERPPRLPRPRPRPGQYPRP | -0.113
RRIRIRPPRLPRPRPRPHPQPRP | -0.0725
RRIRQRPPRLPRPRPRPVGMPRP | 0.18
RRIRLRPPRLPRPRPRPMANPRP | -0.0744
RRIRYRPPRLPRPRPRPGTNPRP | -0.163
RRIRTRPPRLPRPRPRPQLGPRP | -0.0516
RRIRSRPPRLPRPRPRPRHGPRP | 0.196
RRIRCRPPRLPRPRPRPKGNPRP | -0.31
RRIRQRPPRLPRPRPRPGEAPRP | 0.271
RRIRTRPPRLPRPRPRPYIVPRP | -1.04
RRIRTRPPRLPRPRPRPGRVPRP | 0.744
RRIRWRPPRLPRPRPRPNTPPRP | 0.144
RRIRRRPPRLPRPRPRPTRYPRP | 0.337
RRIRMRPPRLPRPRPRPRKHPRP | 0.826

Sequence | shrunken log2 fold change
RRIRTRPPRLPRPRPRPPFPPRP | 0.256
RRIRPRPPRLPRPRPRPCAEPRP | 0.27
RRIRFRPPRLPRPRPRPGYPPRP | 0.0384
RRIRDRPPRLPRPRPRPRFGPRP | 0.206
RRIRYRPPRLPRPRPRPAREPRP | 0.00627
RRIRNRPPRLPRPRPRPMENPRP | -0.0164
RRIRPRPPRLPRPRPRPHWAPRP | -0.0709
RRIRLRPPRLPRPRPRPQRWPRP | 0.236
RRIRNRPPRLPRPRPRPAAVPRP | 0.158
RRIRMRPPRLPRPRPRPWFAPRP | 0.18
RRIRYRPPRLPRPRPRPYFRPRP | -0.836
RRIRSRPPRLPRPRPRPGIYPRP | -0.135
RRIRRRPPRLPRPRPRPCKQPRP | -0.0474
RRIRQRPPRLPRPRPRPGKYPRP | -0.17
RRIRWRPPRLPRPRPRPWFFPRP | -0.0638
RRIRWRPPRLPRPRPRPNYPPRP | -0.157
RRIRHRPPRLPRPRPRPYKNPRP | -0.646
RRIRLRPPRLPRPRPRPDCMPRP | -0.0708
RRIRTRPPRLPRPRPRPYPNPRP | -0.414
RRIRIRPPRLPRPRPRPEGWPRP | 0.497
RRIRFRPPRLPRPRPRPLMGPRP | -0.18
RRIRERPPRLPRPRPRPRKIPRP | 0.0442
RRIRARPPRLPRPRPRPQEMPRP | -0.0254
RRIRQRPPRLPRPRPRPYAQPRP | -0.214
RRIRSRPPRLPRPRPRPDSYPRP | -0.221

From the supplement of paper PMC9112550, “Optimization of the antimicrobial peptide Bac7 by deep mutational scanning” (BMC Biology, 2022)
